Measured values as given in patent US20250257130A1 (NONA BIOSCIENCES SUZHOU, published 2025).
Each block holds one binder with its values, some of them ahead of it.

Assays:
[1] = target: T1, Human ROR1-ECD-his (Acro Biosystems RO1-H522y) (human, UniProt Q01973 30-406); test: BLI in-tandem competition; competitor: PR303145
T1 construct: extracellular domain; bought protein; also called hROR1-ECD-his; hu-ROR1-ECD-his
Text: (§1) To determine if anti-ROR1 antibodies bind to human ROR1 on different or approximate binding epitopes, the ForteBio Octet® RED96e platform was used to perform epitope competition experiments on the anti-ROR1 antibodies. Human ROR1 protein (Acrobiosystems, #RO1-H522y) was biotinylated and then captured onto SA biosensors (ForteBio, #18-5020) to reach loading level of 0.3-0.4 nm. The in-tandem competition assay format was applied and it contains two association steps. Firstly, the antigen-loaded biosensors bind to each antibody (a.k.a, First antibody, 1st Ab) with a saturating concentration of 200 nM for 180 seconds to reach equilibrium and then secondly bind to the competing antibodies (a.k.a, Second antibody, 2nd Ab) of 200 nM for 180 seconds. The second binding signals were recorded as the 100% signal of each antibody when the first antibodies were replaced by kinetics buffer. All the binding data were analyzed using ForteBio Data Analysis 11.0 software. The inhibition rate is calculated by the following formula: […]

[2] = target: T1, Human ROR1-ECD-his (Acro Biosystems …); test: BLI in-tandem competition; competitor: PR303191
Text: as §1

[3] = target: T1, Human ROR1-ECD-his (Acro Biosystems …); test: BLI in-tandem competition; competitor: PR303201
Text: as §1

[4] = target: T1, Human ROR1-ECD-his (Acro Biosystems …); test: BLI in-tandem competition; competitor: PR303199
Text: as §1

[5] = target: T1, Human ROR1-ECD-his (Acro Biosystems …); test: BLI, ROR1-His on HIS1K sensor, antibody in solution
Procedure, shortened: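 His-tagged ROR1 (20 nM) captured on HIS1K biosensors; serially diluted antibodies in kinetics buffer as analyte. Association and dissociation rate constants measured by Octet biolayer interferometry, sensors regenerated with 10 mM glycine-HCl pH 1.5 between cycles.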

[6] = target: T1, Human ROR1-ECD-his (Acro Biosystems …); test: ELISA, coated hu-ROR1-ECD-his
[7] = target: T1, Human ROR1-ECD-his (Acro Biosystems …); test: BLI in-tandem competition; competitor: PR303189
Text: as §1

[8] = target: T1, Human ROR1-ECD-his (Acro Biosystems …); test: BLI in-tandem competition; competitor: PR000374
Text: as §1

[9] = target: T2, human ROR1 on cells (HEK293T-hROR1, PANC-1, A549) (human, UniProt Q01973 30-937); test: flow cytometry on A549 cells, MFI (Mean)
T2 construct: whole, on cells; one molecule for the three cell lines; also called huROR1; cell surface ROR1
T2 sequence (Q01973 30-937): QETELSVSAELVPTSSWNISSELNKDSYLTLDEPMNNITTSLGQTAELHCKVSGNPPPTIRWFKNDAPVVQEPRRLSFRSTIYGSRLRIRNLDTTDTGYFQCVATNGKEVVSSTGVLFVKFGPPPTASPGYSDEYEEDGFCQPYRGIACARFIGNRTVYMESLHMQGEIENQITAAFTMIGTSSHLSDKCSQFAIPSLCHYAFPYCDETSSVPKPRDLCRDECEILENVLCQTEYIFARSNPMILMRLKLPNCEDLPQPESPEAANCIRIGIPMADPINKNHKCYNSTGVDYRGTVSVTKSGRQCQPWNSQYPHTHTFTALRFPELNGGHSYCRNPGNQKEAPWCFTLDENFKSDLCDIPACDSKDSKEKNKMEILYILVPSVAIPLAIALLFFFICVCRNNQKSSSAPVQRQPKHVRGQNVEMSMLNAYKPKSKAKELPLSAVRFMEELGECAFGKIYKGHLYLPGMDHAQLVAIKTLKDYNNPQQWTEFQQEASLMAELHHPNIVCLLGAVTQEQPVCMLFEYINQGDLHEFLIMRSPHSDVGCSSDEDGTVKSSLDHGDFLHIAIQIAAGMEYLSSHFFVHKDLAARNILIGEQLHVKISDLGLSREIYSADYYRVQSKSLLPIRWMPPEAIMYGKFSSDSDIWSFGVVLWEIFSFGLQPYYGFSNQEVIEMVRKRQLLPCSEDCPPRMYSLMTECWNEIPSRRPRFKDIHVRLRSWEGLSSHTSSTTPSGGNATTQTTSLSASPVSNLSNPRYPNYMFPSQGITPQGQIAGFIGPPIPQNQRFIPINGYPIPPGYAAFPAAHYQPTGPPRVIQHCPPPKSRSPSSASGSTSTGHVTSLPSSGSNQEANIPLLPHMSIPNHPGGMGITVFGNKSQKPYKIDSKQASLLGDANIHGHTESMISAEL
Procedure: (§2) Binding of recombinant anti-ROR1 antibodies to human or cynomolgus ROR1-overexpressing cells was tested by flow cytometry. In this example, ROR1-expressing cell lines are HEK293T cell lines that had been transfected to express human ROR1 on the surface (HEK293T-hu ROR1, KYINNO BIOTECHNOLOGY CO., LTD, Catalog #KC-1018), CHO-K1 cell lines that had been transfected to express cynomolgus ROR1 (CHOK1-cyno ROR1), PANC-1 (ATCC, catalog: CRL-1469) or A549 cell lines (Shanghai Institute of Biochemistry and Cell Biology, Chinese Academy of Sciences).
(§3) In brief, anti-ROR1 antibodies were serially diluted in staining buffer (PBS containing 2% FBS). Antibody solution was incubated with 1×10⁵ cells at 4° C. for 1 hour. […] After 1-hour incubation at 4° C., cells were washed twice with staining buffer and subjected to flow cytometry. PR000374 (Bench marker 1) and non-relevant IgG isotype control (Crownbio) were used as positive and negative controls, respectively.

[10] = target: T1, Human ROR1-ECD-his (Acro Biosystems …); test: BLI in-tandem, row = 1st Ab; competitor (2nd Ab): PR005338
Text: as §1

[11] = target: T1, Human ROR1-ECD-his (Acro Biosystems …); test: BLI in-tandem, row = 1st Ab; competitor (2nd Ab): PR007417
Text: as §1

[12] = target: T3, cynomolgus ROR1 on CHO-K1-cynoROR1 cells (cynomolgus monkey, UniProt A0A2K5WTX7 30-937); test: flow cytometry on CHOK1-cynoROR1 cells, MFI (APC-A Median) [top panel]
T3 construct: whole, on cells
Procedure: as §2, §3

T1 sequence (Q01973 30-406): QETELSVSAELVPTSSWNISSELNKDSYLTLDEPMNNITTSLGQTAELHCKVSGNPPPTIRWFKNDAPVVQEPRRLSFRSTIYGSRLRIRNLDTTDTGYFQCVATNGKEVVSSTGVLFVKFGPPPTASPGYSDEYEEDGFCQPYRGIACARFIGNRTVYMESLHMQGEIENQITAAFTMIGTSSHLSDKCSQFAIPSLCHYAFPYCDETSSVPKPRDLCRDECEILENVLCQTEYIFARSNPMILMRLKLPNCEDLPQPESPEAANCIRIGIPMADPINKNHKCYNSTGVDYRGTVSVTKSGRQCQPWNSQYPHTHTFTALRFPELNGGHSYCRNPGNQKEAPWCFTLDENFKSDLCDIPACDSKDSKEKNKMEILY

Inhibition (%) [1]: -70% | Inhibition (%) [2]: 80% | Inhibition (%) [3]: 57% | Inhibition (%) [4]: -57% | Kd [5]: 0.0395 nM | koff [5]: 0.000115 s⁻¹ | kon [5]: 2.9e+06 M⁻¹ s⁻¹ | EC50 [6]: 1 ng/mL | Inhibition (%) [7]: -99% | Inhibition (%) [8]: -38%
B1: PR303191 (antibody, human IgG1, V domains shown)
VH: EVQLLESGGGLVQPGGSLRLSCAASGFIFGSYAMSWVRQAPGKGLEWVSGISGTGGNTYYADSVKGRFTISRDNSKNTLYLQMNSLRAEDTAVYFCERGITIHGVVIIPPDYRGQGTLVTVSS
notes: HCAb (heavy chain-only, human IgG1 Fc), no light chain

Inhibition (%) [1]: -41% | Inhibition (%) [2]: 109% | Inhibition (%) [3]: 86% | Inhibition (%) [4]: -48% | Kd [5]: < 0.001 nM | koff [5]: < 1e-07 s⁻¹ | kon [5]: 165000 M⁻¹ s⁻¹ | EC50 (read off the curve) [9]: ~200 ng/mL | EC50 [6]: 2 ng/mL | Inhibition (%) [7]: -24% | Inhibition (%) [8]: -24%
B2: PR303125 (antibody, human IgG1, V domains shown)
VH: EVQLLESGGGLVQPGGSLRLSCAASGFTFSSHAMSWVRQAPGKGLEWVSAISGSGDSTHYAASVKGRFTISRDNSKNTLYLQMNSLRAEDTAVYYCETLLRFLESLGNDGFKIWGQGTMVTVSS
notes: as for B1

Inhibition (%) [10]: -7.76% | Inhibition (%) [1]: -61% | Inhibition (%) [11]: -10.5% | Inhibition (%) [2]: -34% | Inhibition (%) [3]: -63% | Inhibition (%) [4]: -61% | EC50 (read off the curve) [12]: ~5 nM | EC50 (read off the curve) [9]: ~600 ng/mL | EC50 [6]: 1 ng/mL | Inhibition (%) [7]: -52% | Inhibition (%) [8]: 109%
B3: PR000374 (antibody, human IgG1, kappa, V domains shown)
VH: EVQLVESGGGLVQPGRSLRLSCTASGSDINDYPITWVRQAPGQGLEWIGFINSGGSTWYASWVKGRFTISRDDSKSIAYLQMNSLKTEDTAVYYCARGYSTYYRDFNIWGQGTLVTVSS
VL: DIQMTQSPSSLSASVGDRVTINCQASQSIDSNLAWFQQKPGQPPKLLIYRASNLASGVPDRFSGSGSGTDFTLTISSLEAEDVATYYCLGGVGAVSYRTSFGGGTKVEIKR
notes: positive control; also called Bench marker 1
